According to the supplement of paper PMC7877785:
± gives the uncertainty stated by the source.

Assay: self-splicing fitness, log relative to wild type (ln ratio); higher = more splicing; Tetrahymena group I intron in knt gene, E. coli kanamycin selection, DiMSum; sequences stand for … in CUCUCU…GGAGGGAAAAGUUAUCAGGCAUGCACCUGGUAGCUAGUCUUUAAACCAAUAGAUUGCAUCGGUUUAAAAGGCAAGACCGUCAAAUUGCGGGAAAGGGGUCAACAGCCGUUCAGUACCAAGUCUCAGGGGAAACUUUGAGAUGGCCUUGCAAAGGGUAUGGUAAUAAGCUGACGGACAUGGUCCUAACCACGCAGCCAAGUCCUAAGUCAACAGAUCUUCUGUUGAUAUGGAUGCAGUUCACAGACUAAAUGUCGGUCGGGGAAGAUGUAUUCUUCUCAUAAGAUAUAGUCGGACCUCUCCUUAAUGGGAGCUAGCGGAUGAAGUGAUGCAACACUGGAGCCGCUGGGAACUAAUUUGUAUGCGAAAGUAUAUUGAUUAGUUUUGGAGUACUCGUGGUCG
In short: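 Library with all eight P1ex-region intron nucleotides randomised, intron inside the knt kanamycin-resistance gene on pET-22b(+), in E. coli BL21(DE3). Cells grew overnight at 37°C or 30°C on LB agar with or without 25 μg/mL kanamycin (plus 100 μg/mL carbenicillin, 50 μM IPTG, 0.2% rhamnose), in six replicate transformations. Pooled colonies were amplicon-sequenced on Illumina HiSeq 2500. DiMSum fitness is the error-weighted combination of wild-type-normalised replicate fold changes, kanamycin versus none.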

| Sequence | self-splicing fitness (ln) (30 °C) | self-splicing fitness (ln) (37 °C) |
| --- | --- | --- |
| UCAGAGCAAUAUUACGAUGA | -0.825 ± 0.2 | 0.109 ± 0.21 |
| UCAGAGCAAUAUUACGAUUG | -4 ± 0.37 | -2.41 ± 0.24 |
| UCAGAGCAAUAUUACGCAAC | -3.8 ± 0.48 | -1.91 ± 0.29 |
| UCAGAGCAAUAUUACGCACU | -2.95 ± 0.44 | -2.62 ± 0.48 |
| UCAGAGCAAUAUUACGCGCA | -1.19 ± 0.2 | -1.69 ± 0.29 |
| UCAGAGCAAUAUUACGCGGG | -2.22 ± 0.14 | -1.99 ± 0.23 |
| UCAGAGCAAUAUUACGCGUC | -2.62 ± 0.18 |  |
| UCAGAGCAAUAUUACGCUUU | -2.7 ± 0.32 | -2.84 ± 0.48 |
| UCAGAGCAAUAUUACGGCUU | -3.38 ± 0.34 | -2.19 ± 0.35 |
| UCAGAGCAAUAUUACGGGAU | -3.39 ± 0.47 | -2.58 ± 0.48 |
| UCAGAGCAAUAUUACGGGGA | -1.48 ± 0.11 | -1.1 ± 0.13 |
| UCAGAGCAAUAUUACGGGUG | -3.2 ± 0.2 | -1.46 ± 0.14 |
| UCAGAGCAAUAUUACGGUAC | -2.06 ± 0.3 |  |
| UCAGAGCAAUAUUACGGUCC | -2.18 ± 0.24 |  |
| UCAGAGCAAUAUUACGGUGA | -0.792 ± 0.084 | -0.193 ± 0.1 |
| UCAGAGCAAUAUUACGUACC | -3.69 ± 0.25 | -1.59 ± 0.37 |
| UCAGAGCAAUAUUACGUAUC | -2.86 ± 0.36 | -1.41 ± 0.31 |
| UCAGAGCAAUAUUACGUCCG | -2.17 ± 0.2 | -1.14 ± 0.25 |
| UCAGAGCAAUAUUACGUGAA | -2.01 ± 0.15 | -1.2 ± 0.21 |
| UCAGAGCAAUAUUACGUGAC | -3.69 ± 0.28 | -1.9 ± 0.23 |
| UCAUAGCAAUAUUACGCAUU | -2.86 ± 0.14 | -3.04 ± 0.22 |
| UCAUAGCAAUAUUACGCCUU | -3.75 ± 0.4 | -1.52 ± 0.33 |
| UCAUAGCAAUAUUACGCGUG | -2.85 ± 0.12 | -1.67 ± 0.11 |
| UCAUAGCAAUAUUACGCGUU | -3.38 ± 0.27 | -3.03 ± 0.27 |
| UCAUAGCAAUAUUACGCUUC |  | -2.26 ± 0.23 |

| Sequence | self-splicing fitness (ln) (30 °C) | self-splicing fitness (ln) (37 °C) |
| --- | --- | --- |
| UCAUAGCAAUAUUACGGGGG | -2.69 ± 0.19 | -2.27 ± 0.21 |
| UCAUAGCAAUAUUACGGGUC | -2.94 ± 0.42 | -2.9 ± 0.35 |
| UCAUAGCAAUAUUACGUAGA | -1.88 ± 0.097 | -1.8 ± 0.12 |
| UCAUAGCAAUAUUACGUCAU | -2.74 ± 0.29 | -3.16 ± 0.27 |
| UCAUAGCAAUAUUACGUCUC | -1.43 ± 0.32 |  |
| UCAUAGCAAUAUUACGUGAU | -3.82 ± 0.17 | -2.62 ± 0.2 |
| UCAUAGCAAUAUUACGUGCG | -1.26 ± 0.11 | -0.279 ± 0.1 |
| UCAUAGCAAUAUUACGUGGC |  | -2.73 ± 0.43 |
| UCAUAGCAAUAUUACGUGGU | -3.42 ± 0.16 | -2.8 ± 0.16 |
| UCCAAGCAAUAUUACGAAGA | -0.503 ± 0.086 | -0.326 ± 0.087 |
| UCCAAGCAAUAUUACGAAGU | -1.09 ± 0.14 | -1.57 ± 0.15 |
| UCCAAGCAAUAUUACGACAC | -2.35 ± 0.31 | -1.42 ± 0.38 |
| UCCAAGCAAUAUUACGACUU | -3.57 ± 0.17 | -2.54 ± 0.18 |
| UCCAAGCAAUAUUACGAGGG | -3.08 ± 0.2 | -2.31 ± 0.31 |
| UCCAAGCAAUAUUACGAGUG | -2.75 ± 0.13 | -2.03 ± 0.11 |
| UCCAAGCAAUAUUACGCAGG | -3.56 ± 0.43 | -2.05 ± 0.26 |
| UCCAAGCAAUAUUACGCAUG | -4.8 ± 0.31 | -2.27 ± 0.19 |
| UCCAAGCAAUAUUACGCGGG | -3.94 ± 0.24 | -3.8 ± 0.36 |
| UCCAAGCAAUAUUACGCGGU | -2.56 ± 0.13 | -1.92 ± 0.16 |
| UCCAAGCAAUAUUACGCUUA | -3.43 ± 0.18 | -1.86 ± 0.11 |
| UCCAAGCAAUAUUACGGCCU | -2.33 ± 0.29 | -2.6 ± 0.27 |
| UCCAAGCAAUAUUACGGCUA | -1.98 ± 0.14 | -0.476 ± 0.11 |
| UCCAAGCAAUAUUACGGCUU | -3.94 ± 0.4 | -1.53 ± 0.25 |
| UCCAAGCAAUAUUACGGUCC | -2.7 ± 0.37 | -1.04 ± 0.22 |
| UCCAAGCAAUAUUACGUAUC | -4.43 ± 0.27 | -1.93 ± 0.16 |

| Sequence | self-splicing fitness (ln) (30 °C) | self-splicing fitness (ln) (37 °C) |
| --- | --- | --- |
| UCCAAGCAAUAUUACGUCAC | -3.72 ± 0.39 | -3.28 ± 0.43 |
| UCCAAGCAAUAUUACGUCUU | -3.92 ± 0.19 | -1.46 ± 0.14 |
| UCCAAGCAAUAUUACGUGAG | -2.37 ± 0.098 | -0.996 ± 0.097 |
| UCCAAGCAAUAUUACGUGGG | -3.89 ± 0.23 | -2.71 ± 0.18 |
| UCCAAGCAAUAUUACGUUGG | -2.99 ± 0.11 | -1.89 ± 0.14 |
| UCCCAGCAAUAUUACGAAAG | -3.84 ± 0.33 | -3.06 ± 0.17 |
| UCCCAGCAAUAUUACGACCG | -3.22 ± 0.3 | -3.01 ± 0.31 |
| UCCCAGCAAUAUUACGAUGU | -2.1 ± 0.088 | -1.2 ± 0.12 |
| UCCCAGCAAUAUUACGCCAA | -2.7 ± 0.33 | -1.63 ± 0.3 |
| UCCCAGCAAUAUUACGCGAC | -4.31 ± 0.29 | -3.36 ± 0.31 |
| UCCCAGCAAUAUUACGCGAU | -3.29 ± 0.21 | -2.64 ± 0.21 |
| UCCCAGCAAUAUUACGCGUG | -3.49 ± 0.18 | -2.34 ± 0.2 |
| UCCCAGCAAUAUUACGCGUU | -1.11 ± 0.075 | -0.493 ± 0.089 |
| UCCCAGCAAUAUUACGCUCC | -1.78 ± 0.22 | -0.443 ± 0.3 |
| UCCCAGCAAUAUUACGCUGA | -2.26 ± 0.12 | -3.02 ± 0.21 |
| UCCCAGCAAUAUUACGGAAA | -2.01 ± 0.19 | -0.716 ± 0.13 |
| UCCCAGCAAUAUUACGGAAC | -4.36 ± 0.27 | -2.65 ± 0.18 |
| UCCCAGCAAUAUUACGGACU | -2.81 ± 0.11 | -1.21 ± 0.096 |
| UCCCAGCAAUAUUACGGAGA | -1.18 ± 0.084 | -0.484 ± 0.11 |
| UCCCAGCAAUAUUACGGCGA | -0.651 ± 0.063 | -0.335 ± 0.078 |
| UCCCAGCAAUAUUACGGCUU | -2.62 ± 0.14 | -1.65 ± 0.17 |
| UCCCAGCAAUAUUACGGUCU | -1.83 ± 0.11 | -0.794 ± 0.11 |
| UCCCAGCAAUAUUACGUAAG | -3.88 ± 0.18 | -1.97 ± 0.17 |
| UCCCAGCAAUAUUACGUACU | -3.77 ± 0.19 | -0.776 ± 0.14 |
| UCCGAGCAAUAUUACGACUU | -2.69 ± 0.33 | -2.98 ± 0.43 |

| Sequence | self-splicing fitness (ln) (30 °C) | self-splicing fitness (ln) (37 °C) |
| --- | --- | --- |
| UCCGAGCAAUAUUACGAGGG | -4.27 ± 0.25 | -1.93 ± 0.22 |
| UCCGAGCAAUAUUACGAUUC | -2.88 ± 0.43 | -2.79 ± 0.48 |
| UCCGAGCAAUAUUACGCAAC | -2.57 ± 0.3 | -1.66 ± 0.33 |
| UCCGAGCAAUAUUACGCAGG | -3.19 ± 0.17 | -1.88 ± 0.19 |
| UCCGAGCAAUAUUACGCAUC | -3.11 ± 0.41 |  |
| UCCGAGCAAUAUUACGCCAC | -2.05 ± 0.4 |  |
| UCCGAGCAAUAUUACGCCGU | -2.21 ± 0.22 |  |
| UCCGAGCAAUAUUACGCGCA | -0.129 ± 0.15 | -0.252 ± 0.14 |
| UCCGAGCAAUAUUACGCGGC | -3.97 ± 0.35 | -2.46 ± 0.29 |
| UCCGAGCAAUAUUACGCUCG | -3.71 ± 0.21 | -3.08 ± 0.37 |
| UCCGAGCAAUAUUACGCUGU | -3.1 ± 0.19 | -0.655 ± 0.16 |
| UCCGAGCAAUAUUACGGCAC | -2.01 ± 0.18 | -2.76 ± 0.24 |
| UCCGAGCAAUAUUACGGGUU | -3.41 ± 0.14 | -1.9 ± 0.15 |
| UCCGAGCAAUAUUACGGUGC | -3.26 ± 0.19 | -2.62 ± 0.22 |
| UCCGAGCAAUAUUACGUAAA | -2.8 ± 0.28 |  |
| UCCGAGCAAUAUUACGUAAC |  | -0.912 ± 0.35 |
| UCCGAGCAAUAUUACGUGAA | -3.29 ± 0.17 | -1.16 ± 0.15 |
| UCCGAGCAAUAUUACGUGAC | -4.99 ± 0.41 | -2.66 ± 0.29 |
| UCCGAGCAAUAUUACGUGUU | -2.75 ± 0.16 | -2.36 ± 0.15 |
| UCCGAGCAAUAUUACGUUAC | -3.25 ± 0.43 | -1.63 ± 0.43 |
| UCCGAGCAAUAUUACGUUCU | -3.44 ± 0.29 | -2.62 ± 0.26 |
| UCCGAGCAAUAUUACGUUUG | -3.31 ± 0.2 | -3.36 ± 0.25 |
| UCCUAGCAAUAUUACGAAAG | -2.86 ± 0.33 |  |
| UCCUAGCAAUAUUACGAAAU | -3.19 ± 0.47 | -0.807 ± 0.42 |
